Literature values in US20030092000.

How the values were obtained:
Settings in all cases: method not stated
[1] = system: FAD 1A (designed three-finger ZFP) (synthetic)
[2] = system: FAD 1B (designed three-finger ZFP) (synthetic)
[3] = system: FAD 4A (designed three-finger ZFP) (synthetic)
[4] = system: FAD 4B (designed three-finger ZFP) (synthetic)
[5] = system: FAD 2A (designed three-finger ZFP) (synthetic)
[6] = system: FAD 3A (designed three-finger ZFP) (synthetic)
[7] = system: FAD 3B (designed three-finger ZFP) (synthetic)
[8] = system: FAD 5A (designed three-finger ZFP) (synthetic)

With “GAGGTAGAGG (double strand) [FAD 1 target]” as the sequence, how does the Kd [1] read?
Its Kd is 10 nM.

What about the Kd [2] of the same sequence?
The Kd was 10 nM.

Which results are given for “GAGGTGGAAG (double strand) [FAD 4 target]”?
Kd [3]: 10 nM; Kd [4]: 2 nM

Which Kd [5] does the source give for “GTCGTGTGGA (double strand) [FAD 2 target]” here?
Its Kd is 100 nM.

For “GTTGAGGAAG (double strand) [FAD 3 target]”, which Kd [6] is on record?
Its Kd is 100 nM.

What about the Kd [7] of the same sequence?
Its Kd is 100 nM.

For “TAGGTGGTGA (double strand) [FAD 5 target]”, which Kd [8] is on record?
Its Kd is 10 nM.
